Test results taken from patent US20260125469A1 (Hoffmann-La Roche, published 2026).

How the values were obtained:
[1] = target: T1, human CD19 on cells (Nalm-6, Z-138) (human, UniProt P15391 20-556); assay: cell-based or functional assay
T1 sequence (looked up): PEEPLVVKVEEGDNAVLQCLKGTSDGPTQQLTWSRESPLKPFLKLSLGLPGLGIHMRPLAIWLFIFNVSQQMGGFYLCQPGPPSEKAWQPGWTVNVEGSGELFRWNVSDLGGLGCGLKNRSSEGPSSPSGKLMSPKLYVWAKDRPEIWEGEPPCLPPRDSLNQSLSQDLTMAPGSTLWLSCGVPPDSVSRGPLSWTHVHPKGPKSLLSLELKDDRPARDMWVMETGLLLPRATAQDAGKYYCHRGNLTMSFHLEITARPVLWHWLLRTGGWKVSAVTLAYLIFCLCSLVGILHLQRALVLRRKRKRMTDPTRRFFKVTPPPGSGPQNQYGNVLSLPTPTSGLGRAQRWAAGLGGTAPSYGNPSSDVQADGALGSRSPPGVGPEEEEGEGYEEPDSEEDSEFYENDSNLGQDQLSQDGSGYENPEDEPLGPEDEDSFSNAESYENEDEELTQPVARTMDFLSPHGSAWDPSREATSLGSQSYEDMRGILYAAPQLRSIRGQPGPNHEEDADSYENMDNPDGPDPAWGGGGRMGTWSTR

[2] = target: T1, human CD19 on cells (Nalm-6, Z-138); assay: flow cytometry on Nalm-6 cells
Procedure: (§1) The binding of the CD19-TCB molecules prepared in Example 15 to human CD19- and CD3-expressing target cells was tested. Two CD19-expressing cell lines with different levels of CD19 expression were used. Nalm-6, an acute lymphoblastic leukemia (ALL) cell line with high CD 19 expression and Z-138 (Mantle cell lymphoma) with average expression levels. CD3-binding was assessed using immortalized T lymphocyte line (Jurkat cell line). Briefly, cells were harvested, counted, checked for viability and resuspended at 1×10⁶ cells/ml in FACS buffer (PBS+2% FCS+5 mM EDTA+0.25% sodium azide). […] Binding curves and the EC50 values related to binding were calculated using GraphPad Prism 7.

[3] = target: T2, CD19 extracellular domain (ECD)-Fc fusion (human, UniProt P01857 104-328 = IgG part); assay: SPR, TCB captured by anti-PG antibody, CD19 ECD-Fc as analyte, 25°C
T2 construct: Monovalent CD19 ECD on a knob-into-hole Fc; also called CD19 antigen; recombinant human CD19
Procedure: (§2) SPR experiments were performed, using the CD19-TCB molecules prepared in Example 15, on a Biacore T200 instrument at 25° C. with HBS-EP+ as running buffer (0.01 M HEPES pH 7.4, 0.15 M NaCl, 0.005% Surfactant P20 (GE Healthcare, #BR-1006-69)). Anti-PG antibody (see Example 3) was directly immobilized by amine coupling on a C1 chip (GE Healthcare). The different TCB molecules were captured at 25 nM. Three-fold dilution series (in HBS-EP from 0.14 to 100 nM) of the CD19 antigen (CD19 extracellular domain (ECD)-Fc fusion; see SEQ ID NOs 99 and 100) or the CD3 antigen (see Example 3, SEQ ID NOs 41 and 42) were passed over the ligand at 30 μl/min for 240 s to record the association phase. The dissociation phase was monitored for 1500 s (CD19 antigen) or 800 s (CD3 antigen)s and triggered by switching from the sample solution to HBS-EP+. The chip surface was regenerated after every cycle using two injections of 10 mM glycine pH 2.1 for 60 sec. Bulk refractive index differences were corrected for by subtracting the response obtained on the reference flow cell (without captured TCB). The affinity constants were derived from the kinetic rate constants by fitting to a 1:1 Langmuir binding using the Biaeval software (GE Healthcare). The measurement was performed with three independent dilution series.

[4] = target: T3, human CD3 on cells (CD3ε) (human, UniProt P07766 23-207); assay: flow cytometry on Jurkat cells
T3 construct: CD3 complex as it stands on Jurkat cells or primary T cells; also called CD3-expressing Jurkat cells; CD3-expressing T cells
Procedure: as §1

[5] = target: T4, Human CD3ε stalk-Fc(knob)-Avi/CD3δ stalk-Fc(hole) (human); assay: SPR, TCB captured by anti-PG antibody, human CD3ε/δ-Fc as analyte, 25°C
T4 construct: Heterodimer of CD3 delta and CD3 epsilon ectodomains fused to human Fc with knob-into-hole; also called human CD3ε/δ; CD3 antigen
Procedure: as §2

[6] = target: T5, Cynomolgus CD3ε stalk-Fc(knob)-Avi/CD3δ stalk-Fc(hole) (cynomolgus); assay: SPR, monovalent IgG captured by anti-PG antibody, antigen as analyte, 25°C; bad fit quality per footnote
T5 construct: also called cynomolgus CD3ε/δ
Procedure: (§3) SPR experiments were performed as described in Example 3, with the monovalent IgG molecules prepared in Example 19.
(§4) To analyze the interaction to CD3, IgG molecules were captured for 240 s at 50 nM with a flow rate of 5 μl/min. Human and cynomolgus CD3F stalk-Fc(knob)-Avi/CD36-stalk-Fc(hole) were passed at a concentration of 0.061-250 nM with a flow rate of […] through the flow cells for 300 s. The dissociation was monitored for 800 s.

[7] = target: T4, Human CD3ε stalk-Fc(knob)-Avi/CD3δ …; assay: as above
Procedure: as §3, §4

[8] = target: T4, Human CD3ε stalk-Fc(knob)-Avi/CD3δ …; assay: SPR on immobilized human CD3ε/δ after stress, relative to sample kept at -80°C pH 6
Procedure: All SPR experiments were performed on a Biacore T200 instrument (GE Healthcare) at 25° C. with HBS-P+ (10 mM HEPES, 150 mM NaCl pH 7.4, 0.05% Surfactant P20) as running and dilution buffer. Biotinylated human CD3ε/δ (see Example 3, SEQ ID NOs 41 and 42) as well as biotinylated anti-huIgG (Capture Select, Thermo Scientific, #7103262100) were immobilized on a Series S Sensor Chip SA (GE Healthcare, #29104992), resulting in surface densities of at least 1000 resonance units (RU). Anti-CD3 antibodies with a concentration of 2 μg/ml were injected for 30 s at a flow rate of 5 μl/min, and dissociation was monitored for 120 s. The surface was regenerated by injecting 10 mM glycine pH 1.5 for 60 s. Bulk refractive index differences were corrected by subtracting blank injections and by subtracting the response obtained from a blank control flow cell. For evaluation, the binding response 5 seconds after injection end was taken. To normalize the binding signal, the CD3 binding was divided by the anti-huIgG response (the signal (RU) obtained upon capture of the CD3 antibody on the immobilized anti-huIgG antibody). The relative binding activity was calculated by referencing each temperature stressed sample to the corresponding, non-stressed sample.
The experiment was performed as described in Example 4, using the monovalent IgG molecules prepared in Example 19.

T3 sequence (P07766 23-207 limits assumed): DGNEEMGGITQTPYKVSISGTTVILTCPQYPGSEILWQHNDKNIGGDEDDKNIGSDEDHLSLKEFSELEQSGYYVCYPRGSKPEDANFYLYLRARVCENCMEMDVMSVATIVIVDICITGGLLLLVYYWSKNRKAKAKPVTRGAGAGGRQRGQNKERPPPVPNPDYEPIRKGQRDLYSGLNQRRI

B1: CD19-TCB, CD19(2B11) CD3orig (bispecific antibody, human IgG1, kappa, L234A L235A)
heavy 1: not shown
heavy 2: QVQLVQSGAEVKKPGASVKVSCKASGYTFTDYIMHWVRQAPGQGLEWMGYINPYNDGSKYTEKFQGRVTMTSDTSISTAYMELSRLRSDDTAVYYCARGTYYYGPQLFDYWGQGTTVTVSSASTKGPSVFPLAPSSKSTSGGTAALGCLVEDYFPEPVTVSWNSGALTSGVHTFPAVLQSSGLYSLSSVVTVPSSSLGTQTYICNVNHKPSNTKVDEKVEPKSCDKTHTCPPCPAPEAAGGPSVFLFPPKPKDTLMISRTPEVTCVVVDVSHEDPEVKFNWYVDGVEVHNAKTKPREEQYNSTYRVVSVLTVLHQDWLNGKEYKCKVSNKALGAPIEKTISKAKGQPREPQVCTLPPSRDELTKNQVSLSCAVKGFYPSDIAVEWESNGQPENNYKTTPPVLDSDGSFFLVSKLTVDKSRWQQGNVFSCSVMHEALHNHYTQKSLSLSP
light 1: DIVMTQTPLSLSVTPGQPASISCKSSQSLETSTGTTYLNWYLQKPGQSPQLLIYRVSKRFSGVPDRFSGSGSGTDFTLKISRVEAEDVGVYYCLQLLEDPYTFGQGTKLEIKRTVAAPSVFIFPPSDRKLKSGTASVVCLLNNFYPREAKVQWKVDNALQSGNSQESVTEQDSKDSTYSLSSTLTLSKADYEKHKVYACEVTHQGLSSPVTKSFNRGEC
light 2: EVQLLESGGGLVQPGGSLRLSCAASGFTFSTYAMNWVRQAPGKGLEWVSRIRSKYNNYATYYADSVKGRFTISRDDSKNTLYLQMNSLRAEDTAVYYCVRHGNFGNSYVSWFAYWGQGTLVTVSSASVAAPSVFIFPPSDEQLKSGTASVVCLLNNFYPREAKVQWKVDNALQSGNSQESVTEQDSKDSTYSLSSTLTLSKADYEKHKVYACEVTHQGLSSPVTKSFNRGEC
notes: 2+1 IgG CrossFab, inverted; human IgG1 Fc, knob-into-hole, PGLALA
- EC50 (pM) of tumor cell lysis, Nalm-6 target cells [1]: 0.3 pM
- EC50 (pM) of tumor cell lysis, Z-138 target cells [1]: 4.8 pM
- EC50 [2]: 0.7 nM
- Kd [3]: 0.4 nM
- koff [3]: 0.000176 s⁻¹
- kon [3]: 434000 M⁻¹ s⁻¹
- t1/2 [3]: 65.6 min
- EC50 [4]: 203 nM
- Kd [5]: 3.36 nM
- koff [5]: 0.00378 s⁻¹
- kon [5]: 1.13e+06 M⁻¹ s⁻¹
- t1/2 [5]: 3.1 min

B2: CD19-TCB, CD19(018) CD3 variant P035.093 (bispecific antibody, human IgG1, kappa, L234A L235A)
heavy 1: not shown
heavy 2: QVQLVQSGAEVKKPGASVKVSCKASGYTFTDYIMHWVRQAPGQGLEWMGYINPYNDGSKYTEKFQGRVTMTSDTSISTAYMELSRLRSDDTAVYYCARGTYYYGSALFDYWGQGTTVTVSSASTKGPSVFPLAPSSKSTSGGTAALGCLVEDYFPEPVTVSWNSGALTSGVHTFPAVLQSSGLYSLSSVVTVPSSSLGTQTYICNVNHKPSNTKVDEKVEPKSCDKTHTCPPCPAPEAAGGPSVFLFPPKPKDTLMISRTPEVTCVVVDVSHEDPEVKFNWYVDGVEVHNAKTKPREEQYNSTYRVVSVLTVLHQDWLNGKEYKCKVSNKALGAPIEKTISKAKGQPREPQVCTLPPSRDELTKNQVSLSCAVKGFYPSDIAVEWESNGQPENNYKTTPPVLDSDGSFFLVSKLTVDKSRWQQGNVFSCSVMHEALHNHYTQKSLSLSP
light 1: DIVMTQTPLSLSVTPGQPASISCKSSQSLENPNGNTYLNWYLQKPGQSPQLLIYRVSKRFSGVPDRFSGSGSGTDFTLKISRVEAEDVGVYYCLQLTHVPYTFGQGTKLEIKRTVAAPSVFIFPPSDRKLKSGTASVVCLLNNFYPREAKVQWKVDNALQSGNSQESVTEQDSKDSTYSLSSTLTLSKADYEKHKVYACEVTHQGLSSPVTKSFNRGEC
light 2: EVQLLESGGGLVQPGGSLRLSCAASGFTFSSYAMNWVRQAPGKGLEWVSRIRSKYNNYATYYADSVKGRFTISRDDSKNTLYLQMNSLRAEDTAVYYCVRASNFPASYVSYFAYWGQGTLVTVSSASVAAPSVFIFPPSDEQLKSGTASVVCLLNNFYPREAKVQWKVDNALQSGNSQESVTEQDSKDSTYSLSSTLTLSKADYEKHKVYACEVTHQGLSSPVTKSFNRGEC
notes: as for B1
- EC50 (pM) of tumor cell lysis, Nalm-6 target cells [1]: 0.9 pM
- EC50 (pM) of tumor cell lysis, Z-138 target cells [1]: 8.1 pM
- EC50 [2]: 1.2 nM
- Kd [3]: 1.27 nM
- koff [3]: 0.000392 s⁻¹
- kon [3]: 310000 M⁻¹ s⁻¹
- t1/2 [3]: 29.5 min
- EC50 [4]: 38 nM
- Kd [5]: 0.37 nM
- koff [5]: 0.00135 s⁻¹
- kon [5]: 3.68e+06 M⁻¹ s⁻¹
- t1/2 [5]: 8.6 min

B3: anti-CD3 antibody clone P004.042 in monovalent IgG format (antibody)
heavy: not shown
chain: DKTHTCPPCPAPEAAGGPSVFLFPPKPKDTLMISRTPEVTCVVVDVSHEDPEVKFNWYVDGVEVHNAKTKPREEQYNSTYRVVSVLTVLHQDWLNGKEYKCKVSNKALGAPIEKTISKAKGQPREPQVCTLPPSRDELTKNQVSLSCAVKGFYPSDIAVEWESNGQPENNYKTTPPVLDSDGSFFLVSKLTVDKSRWQQGNVFSCSVMHEALHNHYTQKSLSLSP
light: EVQLLESGGGLVQPGGSLRLSCAASGFQFDNYAMNWVRQAPGKGLEWVSRIRTKYNEYATYYADSVKGRFTISRDDSKNTLYLQMNSLRAEDTAVYYCVRASNFPQSYVSYFGYWGQGTLVTVSSASVAAPSVFIFPPSDEQLKSGTASVVCLLNNFYPREAKVQWKVDNALQSGNSQESVTEQDSKDSTYSLSSTLTLSKADYEKHKVYACEVTHQGLSSPVTKSFNRGEC
notes: also called monovalent IgG P004.042
- Kd [6]: 0.439 nM
- koff [6]: 0.00809 s⁻¹
- kon [6]: 1.85e+07 M⁻¹ s⁻¹
- t1/2 [6]: 1.43 min
- Kd [7]: 1.36 nM
- koff [7]: 0.00852 s⁻¹
- kon [7]: 6.28e+06 M⁻¹ s⁻¹
- t1/2 [7]: 1.36 min
- binding activity [%] after 2 weeks at pH 6.0/40°C [8]: 101%
- binding activity [%] after 2 weeks at pH 7.4/37°C [8]: 98%
